Test results from patent publication US20160194357A1, “Novel NPR-B Agonists” (published 2016).
Bridges are numbered along the chain shown (N, C = ends). Where no end group is shown, it is not given here.

T1: natriuretic peptide receptor -A (Homo sapiens)
T1 chain: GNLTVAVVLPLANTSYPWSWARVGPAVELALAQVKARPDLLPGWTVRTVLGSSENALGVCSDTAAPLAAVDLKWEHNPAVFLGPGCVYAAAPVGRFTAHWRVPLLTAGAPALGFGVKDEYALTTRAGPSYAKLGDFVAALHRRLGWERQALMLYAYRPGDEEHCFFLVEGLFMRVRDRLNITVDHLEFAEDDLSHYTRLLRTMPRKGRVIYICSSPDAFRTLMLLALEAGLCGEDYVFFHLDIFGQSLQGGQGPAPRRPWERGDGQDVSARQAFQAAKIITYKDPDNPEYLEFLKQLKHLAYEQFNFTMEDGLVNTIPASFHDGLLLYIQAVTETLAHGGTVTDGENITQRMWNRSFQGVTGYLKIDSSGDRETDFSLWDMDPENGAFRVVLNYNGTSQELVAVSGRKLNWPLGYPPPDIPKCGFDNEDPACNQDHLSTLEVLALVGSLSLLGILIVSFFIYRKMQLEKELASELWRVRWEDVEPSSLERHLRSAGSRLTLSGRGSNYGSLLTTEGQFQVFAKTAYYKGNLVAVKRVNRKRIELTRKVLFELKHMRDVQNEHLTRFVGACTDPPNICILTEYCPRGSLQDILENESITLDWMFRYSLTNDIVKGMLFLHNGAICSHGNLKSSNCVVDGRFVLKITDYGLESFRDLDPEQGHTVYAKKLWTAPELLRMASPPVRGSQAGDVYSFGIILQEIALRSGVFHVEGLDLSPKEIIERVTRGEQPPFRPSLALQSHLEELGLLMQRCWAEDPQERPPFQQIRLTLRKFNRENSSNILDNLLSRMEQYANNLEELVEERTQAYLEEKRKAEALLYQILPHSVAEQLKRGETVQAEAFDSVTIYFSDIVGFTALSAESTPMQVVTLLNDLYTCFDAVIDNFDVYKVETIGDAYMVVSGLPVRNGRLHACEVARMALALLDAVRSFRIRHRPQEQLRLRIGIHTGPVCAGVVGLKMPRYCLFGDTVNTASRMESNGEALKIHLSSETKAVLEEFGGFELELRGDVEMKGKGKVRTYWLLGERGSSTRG

T2: natriuretic peptide receptor -B (human)
T2 chain: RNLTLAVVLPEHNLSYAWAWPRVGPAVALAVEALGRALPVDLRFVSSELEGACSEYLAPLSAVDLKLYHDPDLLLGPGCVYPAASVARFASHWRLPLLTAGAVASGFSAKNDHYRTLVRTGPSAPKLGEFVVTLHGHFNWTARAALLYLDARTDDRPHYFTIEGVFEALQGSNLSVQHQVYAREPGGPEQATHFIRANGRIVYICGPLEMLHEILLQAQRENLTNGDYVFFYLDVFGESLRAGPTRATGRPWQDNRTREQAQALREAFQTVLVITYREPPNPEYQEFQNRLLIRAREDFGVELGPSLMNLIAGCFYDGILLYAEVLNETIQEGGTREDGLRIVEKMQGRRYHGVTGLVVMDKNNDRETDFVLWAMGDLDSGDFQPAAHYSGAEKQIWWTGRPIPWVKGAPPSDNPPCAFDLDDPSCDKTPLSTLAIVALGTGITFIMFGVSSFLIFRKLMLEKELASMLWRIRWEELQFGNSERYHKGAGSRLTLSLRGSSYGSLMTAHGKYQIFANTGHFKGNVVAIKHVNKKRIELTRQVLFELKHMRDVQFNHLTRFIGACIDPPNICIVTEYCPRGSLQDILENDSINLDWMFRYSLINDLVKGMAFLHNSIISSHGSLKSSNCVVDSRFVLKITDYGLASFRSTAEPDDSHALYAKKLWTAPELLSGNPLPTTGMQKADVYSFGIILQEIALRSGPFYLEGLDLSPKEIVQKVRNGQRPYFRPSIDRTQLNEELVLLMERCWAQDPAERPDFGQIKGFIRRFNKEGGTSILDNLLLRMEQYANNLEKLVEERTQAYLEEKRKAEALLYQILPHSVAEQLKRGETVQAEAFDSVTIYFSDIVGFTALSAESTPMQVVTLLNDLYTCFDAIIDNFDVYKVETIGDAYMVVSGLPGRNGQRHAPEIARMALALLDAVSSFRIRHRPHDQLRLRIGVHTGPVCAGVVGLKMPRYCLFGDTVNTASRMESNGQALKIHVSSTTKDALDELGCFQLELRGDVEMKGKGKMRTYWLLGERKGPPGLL


What was measured:
[1] = biological target: T1, natriuretic peptide receptor -A; experiment: cell-based or functional assay
[2] = biological target: T2, natriuretic peptide receptor -B; experiment: cell-based or functional assay

Row | cyclic GMP production in NPR-A transfected 293-T cells, EC50 [1] [µM] | cyclic GMP production in GTM-3 cells, EC50 [2] [µM] | cyclic GMP production in GTM-3 cells, Emax (maximum activation) [2] [%] | Binder
1 | 1.54 | > 45 | 0 | MCHFGGRMDRISCYR [mini-ANP]
2 | 1.6 | 0.0388 | 100 | GLSKGCFGLKLDRIGSMSGLGC (ligand, disulfide 6-22) [C-type natriuretic peptide]
3 | – | 1.63 | 15 | SLRRSSCFGGRMDRIGAQSGLGCNSFRY (ligand, disulfide 7-23) [atrial natriuretic peptide]
